Substitutions are numbered along the chain they refer to.
Experiments:
SARS-COV-2 RBD-SD1 = SARS-COV-2 RBD-SD1 (SARS-COV-2, UniProt P0DTC2 319-591); test: periplasmic extract ELISA
[1] = target: T1, RBD of SARS-COV-1 displayed on yeast cells (SARS-COV-1, UniProt P59594 318-517); test: flow cytometry, yeast-displayed RBD
[2] = target: T2, RBD of HKU3 sarbecovirus displayed on yeast cells (HKU3 sarbecovirus, UniProt Q3LZX1 322-504); test: flow cytometry, yeast-displayed RBD
[3] = target: T3, SARS-COV-2 Wuhan WT Spike_del18 on VSV-delG pseudotyped particles (SARS-COV-2, UniProt P0DTC2 14-1255); test: cell-based or functional assay
[4] = target: T1, RBD of SARS-COV-1 displayed on yeast …; test: flow cytometry, yeast-displayed RBD (data not shown)
[5] = target: RBD of Rp3 sarbecovirus displayed on yeast cells (Rp3 sarbecovirus, UniProt Q3I5J5 322-503); test: as above
[6] = target: T2, RBD of HKU3 sarbecovirus displayed on …; test: as above
[7] = target: T3, SARS-COV-2 Wuhan WT Spike_del18 on …; test: cell-based or functional assay; remark: listed apart in the source
[8] = target: SARS-COV-1 spike protein on VSV-delG pseudotyped particles (SARS-COV-1, UniProt P59594 14-1255); test: cell-based or functional assay
[9] = target: T3, SARS-COV-2 Wuhan WT Spike_del18 on …; test: cell-based or functional assay; remark: listed apart in the source

B1: VHH4.2XAS58 (VHH)
VHH: QVQLQESGGGLVQSGGSLRLSCAGSGFPLEAFSIGWFRQAPGKEREFLAAITFNSDATYYADSVKGRFTISRDNAKNTAYLQMNSLKPDDTAVYSCAAGGNHYNPQYYHDYDKYDHWGQGTQVTVFS
**Q.** Does B1 bind (SARS-COV-2 RBD-SD1)?
**A.** binds

B2: VHH3.89 (VHH)
VHH: QVQLQESGGGLVQPGGSLRLSCAASGFTLDYYAIGWFREVPGKEREGLSRIDSSDGSTYYADSVKGRFTISRDNTKNIVYLQMNNLKPEDTAVYYCATDPIIQGRNWYWTGWGQGTQVTVSS
**Q.** Does B2 bind [1]?
**A.** binds

**Q.** Does B2 bind [2]?
**A.** binds

B3: VHH3.83 (VHH)
VHH: QVQLQESGGGLVQPGDSLRLSCVLSGGVFTSYAMGWFRQAPGKEREFLAAITFNSDATYYADSVKGRFTISRDNAKNTAYLQMNSLKPNDTAVYSCAAGGNHYNPQYYHDYDKYDHWGQGTQVTVSS
**Q.** B3 was tested. Which “IC50 ug/ml, pseudoneutralization assay” value [3] did it give?
**A.** 0.262 µg/mL

**Q.** Does B3 bind [4]?
**A.** binds

**Q.** Does B3 bind [5]?
**A.** binds

**Q.** Does B3 bind [6]?
**A.** binds

B4: VHH4.2XAS43 (VHH)
VHH: B3 VHH with P14A, R19T, V23A, L24A, G27R, V28T, F29G, T30S, S31N, N89D
**Q.** Does B4 bind (SARS-COV-2 RBD-SD1)?
**A.** binds

B5: VHH4.1XAS51 (VHH)
VHH: QVQLQESGGGLVQAGGSLRLSCTASTPTIKNYAMGWFRQAPGKEREFLAAITFNSDATYYADSVKGRFTISRDNAKNTAYLQMNSLKPDDTAVYSCAAGGNHYNPQYYHDYDKYDYWGQGTQVTVSS
**Q.** Does B5 bind (SARS-COV-2 RBD-SD1)?
**A.** binds

B6: VHH4.2XAS31 (VHH)
VHH: QVQLQESGGGFVQAGGSLRLSCATSGHRFSDYAVAWFRQTPGKEREFLAAITFNSDATYYADSVKGRFTISRDNAKNTAYLQMNSLKPDDTAVYSCAAGGNHYNPQYYHDYDKYDHWGQGTQVTVSS
**Q.** Does B6 bind (SARS-COV-2 RBD-SD1)?
**A.** binds

B7: VHH3.42 (VHH)
VHH: QVQLQESGGGLVQPGGSLRLSCAASGSAVSINDMGWYRQPPGKQRELVATITKTGSTNYADSVKGRFTISRDNAKNAVYLEMNSLKPEDTATYYCNAWLPYGMGPDYYGMELWGKGTQVTVSS
**Q.** Which results are given for B7?
**A.** neutralization IC50 [7]: 54.8 nM; IC50 Mean VSV-dG-spike SARS-COV-1 [8]: 0.19 µg/mL; IC50 Mean VSV-dG-spike SARS-COV-2 [9]: 0.8 µg/mL; binding result [6]: binds

B8: VHH3.117 (VHH)
VHH: B7 VHH with S27K, N32S, V63A, K64Q, A74T, N76S, N83K, T92V
**Q.** B8 was tested. Which “neutralization IC50” value [7] did it give?
**A.** 13.7 nM

**Q.** What about the “IC50 Mean VSV-dG-spike SARS-COV-1” value [8] of the same binder?
**A.** 0.016 µg/mL

**Q.** And the “IC50 Mean VSV-dG-spike SARS-COV-2” value [9]?
**A.** 0.2 µg/mL

**Q.** What about the “IC50 ug/ml, pseudoneutralization assay” value [3] of the same binder?
**A.** 0.539 µg/mL

**Q.** Does B8 bind [2]?
**A.** binds

B9: VHH3.92 (VHH)
VHH: B7 VHH with S27K, N32S, S56N, V63A, K64Q, N76S, N83A, T92V
**Q.** With B9 as the binder, how does the “neutralization IC50” value [7] read?
**A.** 13.6 nM

**Q.** What about the “IC50 Mean VSV-dG-spike SARS-COV-2” value [9] of the same binder?
**A.** 0.21 µg/mL

**Q.** Does B9 bind [6]?
**A.** binds

Source: US20240228596A1 (VIB VZW, published 2024)
